± gives the uncertainty stated by the source.
Assay: self-splicing fitness, log relative to wild type (ln ratio); higher = more splicing; Tetrahymena group I intron in knt gene, E. coli kanamycin selection, DiMSum; sequences stand for … in CUCUCU…GGAGGGAAAAGUUAUCAGGCAUGCACCUGGUAGCUAGUCUUUAAACCAAUAGAUUGCAUCGGUUUAAAAGGCAAGACCGUCAAAUUGCGGGAAAGGGGUCAACAGCCGUUCAGUACCAAGUCUCAGGGGAAACUUUGAGAUGGCCUUGCAAAGGGUAUGGUAAUAAGCUGACGGACAUGGUCCUAACCACGCAGCCAAGUCCUAAGUCAACAGAUCUUCUGUUGAUAUGGAUGCAGUUCACAGACUAAAUGUCGGUCGGGGAAGAUGUAUUCUUCUCAUAAGAUAUAGUCGGACCUCUCCUUAAUGGGAGCUAGCGGAUGAAGUGAUGCAACACUGGAGCCGCUGGGAACUAAUUUGUAUGCGAAAGUAUAUUGAUUAGUUUUGGAGUACUCGUGGUCG
How it was run: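 DiMSum derived fitness as the error-weighted combination of fold changes across replicates, kanamycin versus no kanamycin, normalised to wild type. E. coli BL21(DE3) held the library, which randomised all eight P1ex-region intron nucleotides within the knt kanamycin-resistance gene on pET-22b(+). Six replicate transformations grew overnight at 37°C or 30°C on LB agar with or without 25 μg/mL kanamycin, also containing 100 μg/mL carbenicillin, 50 μM IPTG and 0.2% rhamnose, and pooled colonies were amplicon-sequenced on an Illumina HiSeq 2500.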

| Sequence | self-splicing fitness (ln) (30 °C) | self-splicing fitness (ln) (37 °C) |
| --- | --- | --- |
| UGACAGCAAUAUUACGCUCC | -1.28 ± 0.13 | -0.275 ± 0.14 |
| UGACAGCAAUAUUACGCUGA | -2.69 ± 0.17 | -2.08 ± 0.24 |
| UGACAGCAAUAUUACGGAAA | -2.03 ± 0.12 | -1.75 ± 0.14 |
| UGACAGCAAUAUUACGGAAU | -4.15 ± 0.28 | -1.55 ± 0.17 |
| UGACAGCAAUAUUACGGACU | -0.289 ± 0.063 | 0.203 ± 0.078 |
| UGACAGCAAUAUUACGGCCA | -0.00432 ± 0.11 | 0.373 ± 0.13 |
| UGACAGCAAUAUUACGGCCC | -0.701 ± 0.12 | -0.967 ± 0.18 |
| UGACAGCAAUAUUACGGCUU | -0.693 ± 0.075 | -0.053 ± 0.092 |
| UGACAGCAAUAUUACGGUCC | -0.746 ± 0.18 | -0.15 ± 0.23 |
| UGACAGCAAUAUUACGUACG | -0.78 ± 0.071 | -0.016 ± 0.083 |
| UGACAGCAAUAUUACGUAUU | -3.43 ± 0.15 | -1.78 ± 0.11 |
| UGACAGCAAUAUUACGUCGC |  | -1.64 ± 0.45 |
| UGACAGCAAUAUUACGUCUG | -0.69 ± 0.072 | -0.119 ± 0.093 |
| UGACAGCAAUAUUACGUGAC | -2.64 ± 0.12 | -1.37 ± 0.19 |
| UGACAGCAAUAUUACGUGGA | -3 ± 0.21 | -2.31 ± 0.2 |
| UGACAGCAAUAUUACGUUCU | -0.552 ± 0.071 | -0.321 ± 0.089 |
| UGAGAGCAAUAUUACGAACA | -0.706 ± 0.27 | -0.855 ± 0.2 |
| UGAGAGCAAUAUUACGAACU | -3.05 ± 0.43 | -2.02 ± 0.24 |
| UGAGAGCAAUAUUACGACUA | -1.47 ± 0.22 | -1.64 ± 0.21 |
| UGAGAGCAAUAUUACGCCUU | -3 ± 0.18 | -3.73 ± 0.34 |
| UGAGAGCAAUAUUACGCGAU | -3.4 ± 0.33 | -2.24 ± 0.39 |
| UGAGAGCAAUAUUACGCGUG | -2.82 ± 0.24 | 0.21 ± 0.21 |
| UGAGAGCAAUAUUACGCUUA |  | -2.05 ± 0.3 |
| UGAGAGCAAUAUUACGGCUC | -3.55 ± 0.36 |  |
| UGAGAGCAAUAUUACGGGUG | -3.65 ± 0.19 | -2.11 ± 0.19 |
| UGAGAGCAAUAUUACGGUCU |  | -2.37 ± 0.36 |

| Sequence | self-splicing fitness (ln) (30 °C) | self-splicing fitness (ln) (37 °C) |
| --- | --- | --- |
| UGAGAGCAAUAUUACGGUUC | -3.4 ± 0.32 | -1.5 ± 0.23 |
| UGAGAGCAAUAUUACGUGCG | -1.95 ± 0.13 | -1.42 ± 0.15 |
| UGAUAGCAAUAUUACGAAAA | -1.85 ± 0.31 | -2.48 ± 0.4 |
| UGAUAGCAAUAUUACGAAUU | -4.02 ± 0.46 | -2.64 ± 0.23 |
| UGAUAGCAAUAUUACGAUAU | -2.94 ± 0.2 | -2.12 ± 0.21 |
| UGAUAGCAAUAUUACGAUGC | -3.93 ± 0.26 | -1.95 ± 0.17 |
| UGAUAGCAAUAUUACGCAAC | -3.43 ± 0.44 |  |
| UGAUAGCAAUAUUACGCCUC | -3.09 ± 0.32 | -1.34 ± 0.39 |
| UGAUAGCAAUAUUACGCGAU | -2.6 ± 0.29 | -2.65 ± 0.26 |
| UGAUAGCAAUAUUACGCUCG | -0.235 ± 0.13 | 0.0592 ± 0.21 |
| UGAUAGCAAUAUUACGCUGC | -3.67 ± 0.31 | -2.61 ± 0.48 |
| UGAUAGCAAUAUUACGGAAA | -4.03 ± 0.43 | -2.2 ± 0.27 |
| UGAUAGCAAUAUUACGGACG | -0.432 ± 0.1 | -0.181 ± 0.15 |
| UGAUAGCAAUAUUACGGCCG | 0.151 ± 0.1 | 0.324 ± 0.15 |
| UGAUAGCAAUAUUACGGCUG | 0.473 ± 0.11 | -0.149 ± 0.14 |
| UGAUAGCAAUAUUACGGGUG | -1.56 ± 0.099 | -0.678 ± 0.11 |
| UGAUAGCAAUAUUACGUACG | -0.418 ± 0.074 | 0.13 ± 0.1 |
| UGAUAGCAAUAUUACGUAUA | -1.17 ± 0.18 | -1.53 ± 0.19 |
| UGAUAGCAAUAUUACGUGAC | -3.54 ± 0.29 | -1.82 ± 0.29 |
| UGAUAGCAAUAUUACGUGCU | -1.84 ± 0.094 | -1.59 ± 0.14 |
| UGAUAGCAAUAUUACGUUGG | -2.45 ± 0.12 | -1.63 ± 0.16 |
| UGCAAGCAAUAUUACGAACC | -1.15 ± 0.15 | -0.525 ± 0.17 |
| UGCAAGCAAUAUUACGACCU | -0.737 ± 0.07 | -0.219 ± 0.089 |
| UGCAAGCAAUAUUACGACGU | -1.76 ± 0.1 | -1.1 ± 0.13 |
| UGCAAGCAAUAUUACGAGAA | -2.52 ± 0.47 | -1.94 ± 0.27 |
| UGCAAGCAAUAUUACGAGAU | -3.16 ± 0.24 | -3.02 ± 0.35 |

| Sequence | self-splicing fitness (ln) (30 °C) | self-splicing fitness (ln) (37 °C) |
| --- | --- | --- |
| UGCAAGCAAUAUUACGAGCG | -2.37 ± 0.092 | -0.896 ± 0.1 |
| UGCAAGCAAUAUUACGAGCU | -0.536 ± 0.089 | -0.0945 ± 0.1 |
| UGCAAGCAAUAUUACGAGGC | -4.02 ± 0.27 | -2.13 ± 0.23 |
| UGCAAGCAAUAUUACGAUUA | -0.19 ± 0.077 | 0.163 ± 0.092 |
| UGCAAGCAAUAUUACGCCAA | -1.67 ± 0.34 | -0.657 ± 0.19 |
| UGCAAGCAAUAUUACGCCUU | -1 ± 0.16 | -0.449 ± 0.15 |
| UGCAAGCAAUAUUACGCGCU | -1.28 ± 0.12 | -0.818 ± 0.12 |
| UGCAAGCAAUAUUACGGCAG | -0.827 ± 0.078 | -0.0588 ± 0.12 |
| UGCAAGCAAUAUUACGGGAU | -3.04 ± 0.13 | -2.89 ± 0.15 |
| UGCAAGCAAUAUUACGGGGC | -3.59 ± 0.27 | -2.56 ± 0.24 |
| UGCAAGCAAUAUUACGGUCC | -1.81 ± 0.057 | -1.16 ± 0.084 |
| UGCAAGCAAUAUUACGGUGA | -0.55 ± 0.068 | 0.00833 ± 0.086 |
| UGCAAGCAAUAUUACGUAGG | -3.31 ± 0.21 | -0.277 ± 0.14 |
| UGCAAGCAAUAUUACGUCGA | -1.09 ± 0.082 | -0.989 ± 0.089 |
| UGCAAGCAAUAUUACGUGAG | -3.87 ± 0.21 | -2.72 ± 0.18 |
| UGCAAGCAAUAUUACGUUGU | -4.31 ± 0.24 | -2.78 ± 0.2 |
| UGCCAGCAAUAUUACGAAAC |  | -2.42 ± 0.23 |
| UGCCAGCAAUAUUACGAAGA | -2.87 ± 0.18 | -1.33 ± 0.14 |
| UGCCAGCAAUAUUACGACAG | -1.31 ± 0.1 | -0.406 ± 0.12 |
| UGCCAGCAAUAUUACGACGA | -1.01 ± 0.12 | -1.01 ± 0.12 |
| UGCCAGCAAUAUUACGAGUC | -3.49 ± 0.16 | -1.6 ± 0.16 |
| UGCCAGCAAUAUUACGAUAG | -2.17 ± 0.12 | -1.09 ± 0.12 |
| UGCCAGCAAUAUUACGAUGA | -1.99 ± 0.14 | -0.997 ± 0.12 |
| UGCCAGCAAUAUUACGAUUC | -2.68 ± 0.18 | -2.41 ± 0.3 |
| UGCCAGCAAUAUUACGCUCC | -2.88 ± 0.12 | -1.15 ± 0.14 |
